Substrate: CCC(CSC[C@@H](NC(=O)CC[C@H](N)C(=O)O)C(=O)NCC(=O)O)C(=O)c1ccc(OCC(=O)O)c(Cl)c1Cl
Assay: TP_TRANSPORTER: uptake in membrane vesicles from S1(MRP) cells
Format: functional, cell membranes, Membrane vesicle

B1: Multidrug resistance-associated protein 1 (Homo sapiens) (protein)
chain: MALRGFCSADGSDPLWDWNVTWNTSNPDFTKCFQNTVLVWVPCFYLWACFPFYFLYLSRHDRGYIQMTPLNKTKTALGFLLWIVCWADLFYSFWERSRGIFLAPVFLVSPTLLGITMLLATFLIQLERRKGVQSSGIMLTFWLVALVCALAILRSKIMTALKEDAQVDLFRDITFYVYFSLLLIQLVLSCFSDRSPLFSETIHDPNPCPESSASFLSRITFWWITGLIVRGYRQPLEGSDLWSLNKEDTSEQVVPVLVKNWKKECAKTRKQPVKVVYSSKDPAQPKESSKVDANEEVEALIVKSPQKEWNPSLFKVLYKTFGPYFLMSFFFKAIHDLMMFSGPQILKLLIKFVNDTKAPDWQGYFYTVLLFVTACLQTLVLHQYFHICFVSGMRIKTAVIGAVYRKALVITNSARKSSTVGEIVNLMSVDAQRFMDLATYINMIWSAPLQVILALYLLWLNLGPSVLAGVAVMVLMVPVNAVMAMKTKTYQVAHMKSKDNRIKLMNEILNGIKVLKLYAWELAFKDKVLAIRQEELKVLKKSAYLSAVGTFTWVCTPFLVALCTFAVYVTIDENNILDAQTAFVSLALFNILRFPLNILPMVISSIVQASVSLKRLRIFLSHEELEPDSIERRPVKDGGGTNSITVRNATFTWARSDPPTLNGITFSIPEGALVAVVGQVGCGKSSLLSALLAEMDKVEGHVAIKGSVAYVPQQAWIQNDSLRENILFGCQLEEPYYRSVIQACALLPDLEILPSGDRTEIGEKGVNLSGGQKQRVSLARAVYSNADIYLFDDPLSAVDAHVGKHIFENVIGPKGMLKNKTRILVTHSMSYLPQVDVIIVMSGGKISEMGSYQELLARDGAFAEFLRTYASTEQEQDAEENGVTGVSGPGKEAKQMENGMLVTDSAGKQLQRQLSSSSSYSGDISRHHNSTAELQKAEAKKEETWKLMEADKAQTGQVKLSVYWDYMKAIGLFISFLSIFLFMCNHVSALASNYWLSLWTDDPIVNGTQEHTKVRLSVYGALGISQGIAVFGYSMAVSIGGILASRCLHVDLLHSILRSPMSFFERTPSGNLVNRFSKELDTVDSMIPEVIKMFMGSLFNVIGACIVILLATPIAAIIIPPLGLIYFFVQRFYVASSRQLKRLESVSRSPVYSHFNETLLGVSVIRAFEEQERFIHQSDLKVDENQKAYYPSIVANRWLAVRLECVGNCIVLFAALFAVISRHSLSAGLVGLSVSYSLQVTTYLNWLVRMSSEMETNIVAVERLKEYSETEKEAPWQIQETAPPSSWPQVGRVEFRNYCLRYREDLDFVLRHINVTINGGEKVGIVGRTGAGKSSLTLGLFRINESAEGEIIIDGINIAKIGLHDLRFKITIIPQDPVLFSGSLRMNLDPFSQYSDEEVWTSLELAHLKDFVSALPDKLDHECAEGGENLSVGQRQLVCLARALLRKTKILVLDEATAAVDLETDDLIQSTIRTQFEDCTVLTIAHRLNTIMDYTRVIVLDKGEIQEYGAPSDLLQQRGLFYSMAKDAGLV
In the case of B1, the Km is reported as 5 µM.
